# Measured values as given in patent US20250101089A1.
# Biological target: 6×His human TRIM21 PRYSPRY labelled with Alexa Fluor 488 (human) (UniProt P19474)
# Assay: fluorescence anisotropy; 5 nM Alexa Fluor 488-labelled human TRIM21 PRYSPRY, antibody titrated
# UniProt P19474, sequence (P19474 287-465 limits assumed): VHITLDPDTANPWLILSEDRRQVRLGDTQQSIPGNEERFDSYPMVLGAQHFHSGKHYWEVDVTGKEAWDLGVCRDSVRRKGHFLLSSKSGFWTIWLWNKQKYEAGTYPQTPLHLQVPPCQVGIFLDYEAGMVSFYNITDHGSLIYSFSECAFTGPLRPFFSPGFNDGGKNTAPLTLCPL
Substance,Kd [pM],fold increase in affinity against 9C12 WT [fold]
"AP422 NALALA (N297A, L234A, L235A; mouse-human chimeric, human IgG1 Fc region) (antibody)",29000,
"AP422 N297A (mouse-human chimeric, human IgG1 Fc region) (antibody)",14000,
"AP422 T256P (mouse-human chimeric, human IgG1 Fc region) (antibody)",700,
"9C12 T256P (mouse-human chimeric, human IgG1 Fc) (antibody)",1000,10
"AP422 N297A T256P (mouse-human chimeric, human IgG1 Fc region) (antibody)",900,

# Substances with a lower Kd, results first:
Kd [pM],fold increase in affinity against 9C12 WT [fold],Substance
467,,"9C12 N297A T256P (mouse-human chimeric, human IgG1 Fc) (antibody)"
100,,"AP422 NALALA T256P (mouse-human chimeric, human IgG1 Fc region) (antibody)"
